Assay results: patent US11541126B1, “Anti-ASGR1 antibody TLR8 agonist comprising conjugates and uses thereof” (Silverback Therapeutics, Inc., priority 2020, dated 2023)
Entries after “also recorded” stand apart in the source; their conditions may differ.

Tests used:
[1] = Procedure: Throughout the course of this experiment, weekly body weights were obtained for each animal. In addition, the animals were monitored for an increase in ALT enzyme activity as a sign of liver damage. Plasma samples from d0, d7, d21, and d35 were assayed for levels of ALT with ALT Activity Assay Kit (Sigma Chemical Co., MAK052).
HBV = experiment: AAV-HBV mouse model for chronic HBV infection: viral DNA, HBsAg, anti-HBsAg seroconversion; assay type: in vivo
Procedure: C57BL/6 mice were transduced with AAV8-HBV1.2 vector and sorted into treatment groups (n=10). Animals received 0.5 mg/dose of ASGR1-TLR8-S, 0.5 mg of unconjugated mASGR1 mAb or vehicle, sc QWx5 beginning d0 (black arrows). In FIG. 8A, dotted line is LLOQ for HBsAg ELISA. In FIG. 8B, average plasma anti-HBsAg IgG was determined by ELISA. p-values determined by T-test by comparison to vehicle group.
An in vivo mouse model for chronic HBV to examine the therapeutic effect of ASGR1-TLR8 agonists of the instant disclosure. […] Like TLR8 in humans, and in contrast to TLR7 in humans, TLR7 in mice is expressed in myeloid cells, like macrophages. Thus, for in vivo murine experiments, an anti-ASGR1-TLR7 agonist conjugate was generated as a surrogate for human anti-ASGR1-TLR8 agonist conjugates. In addition, the anti-human ASGR1 antibody 4F3 was “murinized” so as to bind to mouse ASGR1.
On day 0 animals were sorted into viral load-balanced treatment groups of 10. […] The experiment was ended on day 35. Weekly plasma samples were assessed for viral DNA and antigens, including samples from post-transduction (i.e., infection) but pre-treatment. HBV DNA in mouse plasma was isolated with QIAAMP® 96 DNA Blood Kit following the manual and quantified by qPCR. The standard curve DNA of 10^7 copies/μL was prepared by 60-fold dilution of 5 ng/μL pAAV2-HBV1.3 plasmid DNA, then serially diluted 10-fold with AE buffer from 10^7 to 10 copies/μL. A 2 μl volume from samples was added to standard qPCR assay mixtuRes. The PCR mixture and samples or plasmid DNA standard were added to 384-well optical reaction plates. PCR was run at 95° C. for 10 min for 1 cycle, at 95° C. for 15 sec, 60° C. for 1 min for 40 cycles. HBsAg plasma levels were determined by ELISA assay using HBsAg ELISA kit (Autobio) according to the manual.

AAV-HBV transduced mice = experiment: Viral DNA and HBsAg antigen in mouse AAV-HBV model (replicated experiment); assay type: in vivo
[2] = defined from liver payload PK after SC doses
From the text: Subcutaneous (SC) doses assessed are similar to those in FIGS. 6A and 6B. Liver payload PK was used as measure of conjugate uptake.
SC doses assessed are similar to those in FIGS. 6A and 6B. Liver payload PK was used as measure of conjugate uptake.

[3] = tested on: B cells in human PBMC and ASGR1pos target cell co-culture; experiment: CD86 on CD19pos B cells in human PBMC and ASGR1pos target cell co-culture (FACS); assay type: cell-based; details: 10 nM, 24 or 48 hours; FIG. 9 and FIG. 11
Procedure: (§1) Normal human donor PBMCs were co-cultured with cell lines expressing ASGR1 (ASGR1^pos) or not (ASGR1^neg) in the presence of 10 nM of either anti-ASGR1-TLR8 conjugate, the unconjugated antibody, an anti-digoxigenin-TLR8 conjugate or no treatment. After 24 or 48 hours of incubation, cells were harvested and processed for FACS analysis (BD FACSCelesta™ Flow Cytometer) by standard procedures for washing and incubation with immune cell lineage antibodies, that included anti-CD19 antibody to identify B cells, and antibodies to detect levels of cell activation molecules, including anti-CD86 antibody.

CD19^pos B cells = experiment: CD86 on CD19pos B cells after PBMC co-culture (flow cytometry); assay type: cell-based, human; details: co-culture of PBMC with ASGR1^pos cells, 10 nM, 24 and 48 hours
Procedure: FIG. 9 is a pair of graphs showing that ASGR1-TLR8 increases B cell expression of CD86, an activation marker indicative of increased antigen presentation and IgG secretion. CD86 levels on CD19^pos B cells were determined by flow cytometry after co-culture of PBMC with ASGR1^pos or ASGR1^neg cells in presence of test articles at 10 nM at 24 hours (left) and 48 hours (right). This ASGR1-TLR8 contains a mouse-human chimeric anti-ASGR1 antibody.
ASGR1-TLR8 conjugate activation increases B-cell expression of CD86, an activation marker indicating increased antigen presentation and IgG secretion. Abbreviations: monoclonal antibody (mAb), positive (pos), negative (neg), mean fluorescence intensity (MFI), hours (hrs). This ASGR1-TLR8 conjugate contains a humanized anti-ASGR1 antibody and has a DAR4.

[4] = tested on: NK cells, CD8+ T cells and CD4+ T cells in human PBMC and ASGR1pos target cell co-culture; experiment: IFNγ on NK cells, CD8+ and CD4+ T cells in human PBMC and ASGR1pos target cell co-culture (FACS); assay type: cell-based; details: 10 nM, 24 or 48 hours; FIG. 10
Procedure: as §1, with “included” for “included anti-CD19 antibody to identify B cells, and”, “anti-IFNγ” for “anti-CD86”

[5] = 0.5 mg subcutaneous once a week for 5 weeks

B1: ASGR1-TLR8-S: "The surrogate (i.e., murinized ASGR1 mAb-C (having 4F3 CDRs)-IgG2a conjugated to a TLR7 agonist Compound 4.1)" (conjugate)
heavy: EVKLVESGGGLVKPGGSLKLSCAASGFTFSSYAMSWVRQTPEKRLEWVSAISGSGGSTYYADSVKGRFTISRDNAKNTLYLQMSSLRSEDTAMYYCAKDFSSRRWYLEYWGQGTTLTVSSAKTTAPSVYPLAPVCGDTTGSSVTLGCLVKGYFPEPVTLTWNSGSLSSGVHTFPAVLQSDLYTLSSSVTVTSSTWPSQSITCNVAHPASSTKVDKKIEPRGPTIKPCPPCKCPAPNLLGGPSVFIFPPKIKDVLMISLSPIVTCVVVDVSEDDPDVQISWFVNNVEVHTAQTQTHREDYNSTLRVVSALPIQHQDWMSGKEFKCKVNNKDLPAPIERTISKPKGSVRAPQVYVLPPPEEEMTKKQVTLTCMVTDFMPEDIYVEWTNNGKTELNYKNTEPVLDSDGSYFMYSKLRVEKKNWVERNSYSCSVVHEGLHNHHTTKSFSRTPGK
light: QAVLTQEPALSVSLGQTVTLTCQGDSLRSYYASWYQQKPGQAPVLVIYGKNNRPSGVPARFSGSLIGDKAALTITGAQTEDEAIYYCNSLERIGYLSYVFGGGTKVTVLRADAAPTVSIFPPSSEQLTSGGASVVCFLNNFYPKDINVKWKIDGSERQNGVLNSWTDQDSKDSTYSMSSTLTLTKDEYERHNSYTCEATHKTSTSPIVKSFNRNEC
modifications: conjugated to TLR7 agonist Compound 4.1; Synthetic sequence mzASGR1 mAb-C Heavy Chain (VH-IgG2a); Synthetic sequence mzASGR1 mAb-C Light Chain (VL-kappa)
Body weight [1, 5]: gained weight like control animals | ALT enzyme activity ([1]; plasma d0, d7, d21, d35): no increase | HBsAg antigen in plasma (HBV; [5]): significantly lowered; also recorded: reduces | Viral DNA in plasma (HBV; [5]): significantly lowered | Anti-HBsAg seroconversion (HBV; 0.5 mg/dose sc QWx5): drives seroconversion | HBsAg antigen (AAV-HBV transduced mice; FIG. 8A): significantly lowered | viral DNA (AAV-HBV transduced mice; data not shown): significantly lowered

B2: ASGR1-S: a mouse conjugate surrogate for an ASGR1-TLR8 conjugate intended for therapeutic use in a human (conjugate)
heavy: EVKLVESGGGLVKPGGSLKLSCAASGFTFSSYAMSWVRQTPEKRLEWVSAISGSGGSTYYADSVKGRFTISRDNAKNTLYLQMSSLRSEDTAMYYCAKDFSSRRWYLEYWGQGTTLTVSSAKTTAPSVYPLAPVCGDTTGSSVTLGCLVKGYFPEPVTLTWNSGSLSSGVHTFPAVLQSDLYTLSSSVTVTSSTWPSQSITCNVAHPASSTKVDKKIEPRGPTIKPCPPCKCPAPNLLGGPSVFIFPPKIKDVLMISLSPIVTCVVVDVSEDDPDVQISWFVNNVEVHTAQTQTHREDYNSTLRVVSALPIQHQDWMSGKEFKCKVNNKDLPAPIERTISKPKGSVRAPQVYVLPPPEEEMTKKQVTLTCMVTDFMPEDIYVEWTNNGKTELNYKNTEPVLDSDGSYFMYSKLRVEKKNWVERNSYSCSVVHEGLHNHHTTKSFSRTPGK
light: QAVLTQEPALSVSLGQTVTLTCQGDSLRSYYASWYQQKPGQAPVLVIYGKNNRPSGVPARFSGSLIGDKAALTITGAQTEDEAIYYCNSLERIGYLSYVFGGGTKVTVLRADAAPTVSIFPPSSEQLTSGGASVVCFLNNFYPKDINVKWKIDGSERQNGVLNSWTDQDSKDSTYSMSSTLTLTKDEYERHNSYTCEATHKTSTSPIVKSFNRNEC
modifications: conjugated to TLR agonist Compound 4.1; Synthetic sequence mzASGR1 mAb-C Heavy Chain (VH-IgG2a); Synthetic sequence mzASGR1 mAb-C Light Chain (VL-kappa)
notes: a mouse conjugate surrogate for an ASGR1-TLR8 conjugate intended for therapeutic use in a human
Seroconversion in the AAV-HBV model (HBV; at 5 mg/kg and 10 mg/kg): observed in some animals | Target payload liver concentration [2]: approximately 100 ng/g

B3: ASGR1-TLR8: This ASGR1-TLR8 contains a mouse-human chimeric anti-ASGR1 antibody (conjugate)
heavy: EVKLVESGGGLVKPGGSLKLSCAASGFTFSSYAMSWVRQTPEKRLEWVSAISGSGGSTYYADSVKGRFTISRDNAKNTLYLQMSSLRSEDTAMYYCAKDFSSRRWYLEYWGQGTTLTVSSAKTTAPSVYPLAPVCGDTTGSSVTLGCLVKGYFPEPVTLTWNSGSLSSGVHTFPAVLQSDLYTLSSSVTVTSSTWPSQSITCNVAHPASSTKVDKKIEPRGPTIKPCPPCKCPAPNLLGGPSVFIFPPKIKDVLMISLSPIVTCVVVDVSEDDPDVQISWFVNNVEVHTAQTQTHREDYNSTLRVVSALPIQHQDWMSGKEFKCKVNNKDLPAPIERTISKPKGSVRAPQVYVLPPPEEEMTKKQVTLTCMVTDFMPEDIYVEWTNNGKTELNYKNTEPVLDSDGSYFMYSKLRVEKKNWVERNSYSCSVVHEGLHNHHTTKSFSRTPGK
light: QAVLTQEPALSVSLGQTVTLTCQGDSLRSYYASWYQQKPGQAPVLVIYGKNNRPSGVPARFSGSLIGDKAALTITGAQTEDEAIYYCNSLERIGYLSYVFGGGTKVTVLRADAAPTVSIFPPSSEQLTSGGASVVCFLNNFYPKDINVKWKIDGSERQNGVLNSWTDQDSKDSTYSMSSTLTLTKDEYERHNSYTCEATHKTSTSPIVKSFNRNEC
modifications: TLR8 agonist conjugated; Synthetic sequence mzASGR1 mAb-C Heavy Chain (VH-IgG2a); Synthetic sequence mzASGR1 mAb-C Light Chain (VL-kappa)
notes: This ASGR1-TLR8 contains a mouse-human chimeric anti-ASGR1 antibody
levels of CD86 on CD19pos cells (MFI) [3]: B cells were activated | B cell expression of CD86 (CD19^pos B cells): increases | levels of IFNγ on NK cells, CD8+ T cells and CD4+ T cells (MFI) [4]: drives an IFNγ response
